# Measured values: paper PMC7532178, “Interaction of protocadherin-15 with the scaffold protein whirlin supports its anchoring of hair-bundle lateral links in cochlear hair cells” (Scientific Reports, 2020)
# B1: whirlin-NTR-PDZ1-Hp1 (aa residues 2-265) [mouse] / PCDH15-CD2 C-terminal peptide (biotin-TTDS-GANSEQYNTAL) [modified: biotin-TTDS (trioxatridecan-succinamic acid spacer) on the N-terminus; biotin-TTDS (trioxatridecan-succinamic acid … (parent complex)
# chain 1: GAMGSTSNAQLDGLSVSSSSTGSLGSAAAAAGGGGGAGLRLLSANVRQLHQALTALLSEPEREQFTHCLNAYHARRNVFDLVRTLRVLLDSPVKRRLLPMLRLVIPRSDQLLFDQYTAEGLYLPATTPYRQPAWAAPDGAGPGEVRLVSLRRAKAHEGLGFSIRGGSEHGVGIYVSLVEPGSLAEKEGLRVGDQILRVNDKSLARVTHAEAVKALKGSKKLVLSVYSAGRIPGGYVTNHIYTWVDPQGRSTSPPSSLPQPHGSTLRQREDD
# chain 2: GANSEQYNTAL
# B2: whirlin-NTR-PDZ1-Hp1 (aa residues 2-265) [mouse] / CDH23 C-terminal peptide (biotin-TTDS-VIMESPLEITEL) [modified: biotin-TTDS (trioxatridecan-succinamic acid spacer) on the N-terminus; biotin-TTDS (trioxatridecan-succinamic acid spacer) on … (parent complex)
# chain 1: B1 chain 1
# chain 2: VIMESPLEITEL
# B3: whirlin-NTR-PDZ1-Hp1 (aa residues 2-265) [mouse] / PCDH15-CD1 C-terminal peptide (biotin-TTDS-GIDVQPHSQSTSL) [modified: biotin-TTDS (trioxatridecan-succinamic acid spacer) on the N-terminus; biotin-TTDS (trioxatridecan-succinamic acid … (parent complex)
# chain 1: B1 chain 1
# chain 2: GIDVQPHSQSTSL
# B4: whirlin-NTR-PDZ1-Hp1 (aa residues 2-265) [mouse] / PCDH15-CD3 C-terminal peptide (biotin-TTDS-MGPWNSLHIPMTKL) [modified: biotin-TTDS (trioxatridecan-succinamic acid spacer) on the N-terminus; biotin-TTDS (trioxatridecan-succinamic acid … (parent complex)
# chain 1: B1 chain 1
# chain 2: MGPWNSLHIPMTKL
# Variants of: B1
# Assay: SPR; whirlin construct at 10 μM; peptide immobilized via N-terminal biotin tag; parent: 15; read off a plot
row,Variant,response
1,chain 1 GAMGSTSNAQLDGLSVSSSSTGSLGSAAAAAGGGGGAGLRLLSANVRQLHQALTALLSEPEREQFTHCLNAYHARRNVFDLVRTLRVLLDSPVKRRLLPMLRLVIPRSDQLLFDQYTAEGLYLPATTPYRQPAWAAPDGAGPGEVRLVSLRRAKAHEGLGFSIRGGSEHGVGIYVSLVEPGSLAEKEGLRVGDQILRVNDKSLARVTYAEAVKALKGSKKLVLSVYSAGRIPGGYVTNHIYTWVDPQGRSTSPPSSLPQPHGSTLRQREDD [chain 1 H208Y],~0.5 % site occupancy
2,chain 1 GAMGSTSNAQLDGLSVSSSSTGSLGSAAAAAGGGGGAGLRLLSANVRQLHQALTALLSEPEREQFTHCLNAYHARRNVFDLVRTLRVLLDSPVKRRLLPMLRLVIPRSDQLLFDQYTAEGLYLPATTPYRQPAWAAPDGAGPGEVRLVSLRRAKAHEGLAFSIRGGSEHGVGIYVSLVEPGSLAEKEGLRVGDQILRVNDKSLARVTHAEAVKALKGSKKLVLSVYSAGRIPGGYVTNHIYTWVDPQGRSTSPPSSLPQPHGSTLRQREDD [chain 1 G160A],~2.5 % site occupancy

# Variants of: B2
# Assay: SPR; whirlin construct at 10 μM; peptide immobilized via N-terminal biotin tag; parent: 11; read off a plot
row,Variant,response
1,chain 1 GAMGSTSNAQLDGLSVSSSSTGSLGSAAAAAGGGGGAGLRLLSANVRQLHQALTALLSEPEREQFTHCLNAYHARRNVFDLVRTLRVLLDSPVKRRLLPMLRLVIPRSDQLLFDQYTAEGLYLPATTPYRQPAWAAPDGAGPGEVRLVSLRRAKAHEGLAFSIRGGSEHGVGIYVSLVEPGSLAEKEGLRVGDQILRVNDKSLARVTHAEAVKALKGSKKLVLSVYSAGRIPGGYVTNHIYTWVDPQGRSTSPPSSLPQPHGSTLRQREDD [chain 1 G160A],~1.5 % site occupancy
2,chain 1 GAMGSTSNAQLDGLSVSSSSTGSLGSAAAAAGGGGGAGLRLLSANVRQLHQALTALLSEPEREQFTHCLNAYHARRNVFDLVRTLRVLLDSPVKRRLLPMLRLVIPRSDQLLFDQYTAEGLYLPATTPYRQPAWAAPDGAGPGEVRLVSLRRAKAHEGLGFSIRGGSEHGVGIYVSLVEPGSLAEKEGLRVGDQILRVNDKSLARVTYAEAVKALKGSKKLVLSVYSAGRIPGGYVTNHIYTWVDPQGRSTSPPSSLPQPHGSTLRQREDD [chain 1 H208Y],~1 % site occupancy

# Variants of: B3
# Assay: SPR; whirlin construct at 10 μM; peptide immobilized via N-terminal biotin tag; parent: 23; read off a plot
row,Variant,response
1,chain 1 GAMGSTSNAQLDGLSVSSSSTGSLGSAAAAAGGGGGAGLRLLSANVRQLHQALTALLSEPEREQFTHCLNAYHARRNVFDLVRTLRVLLDSPVKRRLLPMLRLVIPRSDQLLFDQYTAEGLYLPATTPYRQPAWAAPDGAGPGEVRLVSLRRAKAHEGLAFSIRGGSEHGVGIYVSLVEPGSLAEKEGLRVGDQILRVNDKSLARVTHAEAVKALKGSKKLVLSVYSAGRIPGGYVTNHIYTWVDPQGRSTSPPSSLPQPHGSTLRQREDD [chain 1 G160A],~2 % site occupancy
2,chain 1 GAMGSTSNAQLDGLSVSSSSTGSLGSAAAAAGGGGGAGLRLLSANVRQLHQALTALLSEPEREQFTHCLNAYHARRNVFDLVRTLRVLLDSPVKRRLLPMLRLVIPRSDQLLFDQYTAEGLYLPATTPYRQPAWAAPDGAGPGEVRLVSLRRAKAHEGLGFSIRGGSEHGVGIYVSLVEPGSLAEKEGLRVGDQILRVNDKSLARVTYAEAVKALKGSKKLVLSVYSAGRIPGGYVTNHIYTWVDPQGRSTSPPSSLPQPHGSTLRQREDD [chain 1 H208Y],~-1 % site occupancy

# Variants of: B4
# Assay: SPR; whirlin construct at 10 μM; peptide immobilized via N-terminal biotin tag; parent: 29; read off a plot
row,Variant,response
1,chain 1 GAMGSTSNAQLDGLSVSSSSTGSLGSAAAAAGGGGGAGLRLLSANVRQLHQALTALLSEPEREQFTHCLNAYHARRNVFDLVRTLRVLLDSPVKRRLLPMLRLVIPRSDQLLFDQYTAEGLYLPATTPYRQPAWAAPDGAGPGEVRLVSLRRAKAHEGLAFSIRGGSEHGVGIYVSLVEPGSLAEKEGLRVGDQILRVNDKSLARVTHAEAVKALKGSKKLVLSVYSAGRIPGGYVTNHIYTWVDPQGRSTSPPSSLPQPHGSTLRQREDD [chain 1 G160A],~9.5 % site occupancy
2,chain 1 GAMGSTSNAQLDGLSVSSSSTGSLGSAAAAAGGGGGAGLRLLSANVRQLHQALTALLSEPEREQFTHCLNAYHARRNVFDLVRTLRVLLDSPVKRRLLPMLRLVIPRSDQLLFDQYTAEGLYLPATTPYRQPAWAAPDGAGPGEVRLVSLRRAKAHEGLGFSIRGGSEHGVGIYVSLVEPGSLAEKEGLRVGDQILRVNDKSLARVTYAEAVKALKGSKKLVLSVYSAGRIPGGYVTNHIYTWVDPQGRSTSPPSSLPQPHGSTLRQREDD [chain 1 H208Y],~1.5 % site occupancy
